According to US20110229525A1 (VANDERBILT UNIVERSITY, published 2011):

Biological target: JAK2 (UniProt Q62120 1-1132)
Test: cell-based or functional assay

Sequence of JAK2 (Q62120 whole entry): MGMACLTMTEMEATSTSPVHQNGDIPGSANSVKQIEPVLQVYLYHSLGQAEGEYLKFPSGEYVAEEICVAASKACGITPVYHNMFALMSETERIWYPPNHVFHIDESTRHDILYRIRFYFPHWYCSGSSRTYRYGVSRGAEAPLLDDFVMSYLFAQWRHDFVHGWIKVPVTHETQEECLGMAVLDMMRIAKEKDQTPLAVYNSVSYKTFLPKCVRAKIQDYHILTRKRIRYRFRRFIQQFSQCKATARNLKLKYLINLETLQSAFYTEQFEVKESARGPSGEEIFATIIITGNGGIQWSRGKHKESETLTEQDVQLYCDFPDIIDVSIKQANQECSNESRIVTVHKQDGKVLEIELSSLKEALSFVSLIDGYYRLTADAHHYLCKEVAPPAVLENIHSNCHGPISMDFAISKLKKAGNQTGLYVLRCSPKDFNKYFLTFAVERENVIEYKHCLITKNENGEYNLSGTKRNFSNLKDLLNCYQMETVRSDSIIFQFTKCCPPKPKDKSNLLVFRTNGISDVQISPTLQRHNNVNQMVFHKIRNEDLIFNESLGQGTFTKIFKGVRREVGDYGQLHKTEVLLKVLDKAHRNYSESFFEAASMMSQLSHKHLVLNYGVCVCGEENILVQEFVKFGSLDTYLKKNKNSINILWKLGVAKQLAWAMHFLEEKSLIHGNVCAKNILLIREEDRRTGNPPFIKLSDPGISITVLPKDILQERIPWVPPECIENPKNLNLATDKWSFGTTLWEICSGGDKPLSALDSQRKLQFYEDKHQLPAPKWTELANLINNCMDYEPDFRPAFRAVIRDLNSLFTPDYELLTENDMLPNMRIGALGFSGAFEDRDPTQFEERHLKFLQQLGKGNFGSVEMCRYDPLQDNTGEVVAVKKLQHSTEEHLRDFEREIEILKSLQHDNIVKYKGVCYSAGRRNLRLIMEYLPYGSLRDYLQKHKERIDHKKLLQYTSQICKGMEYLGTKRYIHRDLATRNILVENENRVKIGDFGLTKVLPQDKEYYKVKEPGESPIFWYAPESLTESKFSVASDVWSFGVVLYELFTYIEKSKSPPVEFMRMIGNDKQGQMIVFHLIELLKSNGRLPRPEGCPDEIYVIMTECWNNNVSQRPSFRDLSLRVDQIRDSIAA

concentration of CP-SOCS1 that inhibited phosphorylation of STAT1 by 50% (IC50), AMJ2.C8 macrophages stimulated with IFN-g and LPS: < 1.9 mM
B1: CP-SOCS1 (recombinant cell-penetrating murine SOCS1 with MTM and 6x histidine tag) (other, human;murine, UniProt P08620 7-22, looked up, not shown: small tags and cut ends)
chain: AAVALLPAVLLALLAPMVARNQVAADNAISPAAEPRRRSEPSSSSSSSSPAAPVRPRPCPAVPAPAPGDTHFRTFRSHSDYRRITRTSALLDACGFYWGPLSVHGAHERLRAEPVGTFLVRDSRQRNCFFALSVKMASGPTSIRVHFQAGRFHLDGSRETFDCLFELLEHYVAAPRRMLGAPLRQRRVRPLQELCRQRIVAAVGRENLARIPLNPVLRDYLSSFPFQI
